Measurements: patent US9657092B2, “S100A4 antibodies and therapeutic uses thereof” (LYKERA BIOMED SA, priority 2010, dated 2017)

Assays:
[1] = tested on: IL-8 release induced by S100A4 in THP-1 monocytes; assay: IL-8 release in THP-1 monocytes (sandwich ELISA); format: cell-based, human
Protocol: Cells of the human monocytic leukemia cell line THP-1 (ATCC) were grown in RPMI 1640 culture medium supplemented with 10% FCS and 1% penicillin/streptomycin, at 37° C. in 5% CO2 in a humidified incubator. Cells were plated at 5.0×10^5 cells/well. […] Anti-mouse IgG (Fc specific) was always added in all the cases for preventing the Fc receptor response. Cell culture supernatants were collected after 24 h and stored at −20° C. The levels of IL-8 were analyzed by sandwich ELISA.

[2] = molecular target: T1, Human S100A2 (Homo sapiens, UniProt P29034); assay: ELISA specificity (reaction pattern of mAb); format: binding; set-up: key: ++++ positive reaction; − no reaction
T1 construct: purchased Abnova
T1 sequence (P29034 whole entry): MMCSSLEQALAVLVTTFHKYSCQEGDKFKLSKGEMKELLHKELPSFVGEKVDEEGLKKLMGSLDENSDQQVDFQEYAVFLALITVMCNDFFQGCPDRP

[3] = molecular target: T2, murine S100A4 (Mus musculus, UniProt P07091); assay: Western-blot of NIH-3T3 mouse fibroblast extract; format: binding
T2 construct: total extracts from tumor cell lines of different origins and the mouse embryonic fibroblast cell line NIH3T3; endogenous in cells; host or cells: NIH-3T3 mouse fibroblasts
T2 sequence (P07091 whole entry): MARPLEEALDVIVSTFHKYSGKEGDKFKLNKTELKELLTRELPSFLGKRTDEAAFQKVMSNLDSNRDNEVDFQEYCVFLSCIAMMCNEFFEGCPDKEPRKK
Protocol: (§1) Cell and tumors samples were rinsed twice with PBS and immediately lysed with ice cold Cell Lysis Buffer (150 mM NaCl, 1% IGEPAL CA630, 5 mM EDTA, 100 μg/mL PMSF, 1 mM Na3VO4, 1 mM NaF and 50 mM Tris pH 7.4). Lysates were cleared by centrifugation and the protein concentration was quantified with the Bradford reagent (Bio-Rad). Total extracts (50 μg) were resolved in a 12% SDS-polyacrilamide gel (PAGE) electrophoresis under reduced conditions and transferred to BioTrace™ PVDF membranes (PALL corporation). Membranes were blocked for 1 hour in TBS plus 0.1% Tween-20 with 5% skimmed dried milk, incubated overnight with the relevant primary antibody and then with the secondary antibodies for 1 hour in blocking buffer, washing three times for 10 min in TBS plus 0.1% Tween-20 after each incubation. Signals were developed using the ECL™ Western Blotting Detection Reagents (Amersham) and exposed to Hyperfilm™ ECL (Amersham).

[4] = molecular target: T3, Human S100A4 (Homo sapiens, UniProt P26447); assay: Western-blot of cell and tumor extracts; format: binding; set-up: Levels of S100A4 expression in total extracts from tumor cell lines of different origins; endogenous in cells; host or cells: human tumour cell lines (MiaPACA-2, Panc1, BxPC3, Colo 205, MDA-MB-231 and others) and xenograft tumours from HCT116, MiaPACA-2, BxPC3; conditions: denaturalized protein, reduced conditions
Protocol: as §1
Target sequence in this assay (P26447 whole entry, one chain of several): as the sequence (P07091 whole entry) above, with R3C, E7K, I12M, T32S, V58L, C93F, E97Q counted along it

[5] = Body weight and adverse side effects in xenograft experiments; format: in vivo
[6] = tested on: MiaPACA-2 tumors; assay: MiaPACA-2 subcutaneous xenograft tumor development; format: in vivo, nude mice; conditions: MiaPACA-2, end of experiment (day 30)
Protocol: MiaPACA-2 human pancreatic adenocarcinoma cell line and HCT116 human colorectal adenocarcinoma cell line in exponential growth were harvested with trypsin-EDTA (0.05%/0.02%) (Invitrogen), washed, and examined for viability by trypan blue dye exclusion. Viability was greater than 95%. For primary tumor growth, cells (either 5×10^6 or 1×10^6 cells for MiaPACA-2 or HCT116 respectively in 0.1 mL DMEM high glucose) were subcutaneously injected into the flanks of nude mice. Tumor volumes between 65-160 mm^3 for MiaPACA-2 and volumes between 155-370 mm^3 for HCT116 were used to divide the mice into two groups of either ten mice each (MiaPACA-2) or seven mice each (HCT116), such that the mean tumor size was equal between groups (approximately 100 mm^3 for MiaPACA-2 or 220 mm^3 for HCT116). Tumor growth was followed by measuring tumor diameters with calipers and the tumor volume was calculated using an approximated formula for a prolate ellipsoid: volume=(D×d^2)/2 where D is the longest axis of the tumor and d the shortest. Mice were treated either with vehicle (PBS) or with the antibody, i.p. three times per week at 25 mg/Kg/100 μL of sterile PBS, starting the treatment at defined tumor volume (100 mm^3 and 220 mm^3). […]

[7] = molecular target: T3, Human S100A4; assay: ELISA specificity (reaction pattern of mAb); format: binding; set-up: the final full-length recombinant S100A4 protein has an additional Gly-Ser-His at the N-terminus; His tag (pET28a) (N); made in house; host or cells: E. coli Tuner (DE3); key to Reaction Pattern of mAb in ELISA, Human S100A4: ++++ positive reaction; − no reaction
Target sequence in this assay (P26447 with tags, fused parts or gaps): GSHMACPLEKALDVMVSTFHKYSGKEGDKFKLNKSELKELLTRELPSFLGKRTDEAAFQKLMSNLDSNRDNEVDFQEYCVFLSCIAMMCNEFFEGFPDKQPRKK

[8] = molecular target: T4, Human S100A7 (Homo sapiens, UniProt P31151); assay: ELISA specificity (reaction pattern of mAb); format: binding; set-up: key: ++++ positive reaction; − no reaction
T4 construct: made in house
T4 sequence (P31151 1-101): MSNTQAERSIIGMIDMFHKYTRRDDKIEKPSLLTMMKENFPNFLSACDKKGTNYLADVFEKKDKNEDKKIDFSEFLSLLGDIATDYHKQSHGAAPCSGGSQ

[9] = molecular target: T5, Human S100A6 (Homo sapiens, UniProt P06703); assay: ELISA specificity (reaction pattern of mAb); format: binding; set-up: key: ++++ positive reaction; − no reaction
T5 construct: purchased Abnova

[10] = 25 mg/kg i.p. three times a week

B1: 5C3: mouse monoclonal anti-S100A4 antibody, IgG1, from hybridoma ECACC 10022401; VL SEQ ID NO: 1, VH SEQ ID NO: 2 (antibody, V domains shown)
VH: EAQLQQSGAELVKPGASVKLSCTASGFNIQETYMHWVKQRPEQGLEWIGRIDPANGNTKDDPKFQGKASITVDTSSNTAYLQLSSLTSEDTAVYYCASSYAMDYWGQGTSVTVSS
VL: DVLMTQTPLSLPVSLGDQASISCRSSQSIVHSNGNTYLEWYLQKTGQSPELLIYKVSNRLSGVPDRFSGSGSGTDFTLKISRVEAEDLGVYYCFQGSHVPFTFGSGTKLEIK
modifications: VH region of the 5C3 monoclonal antibody; VL region of the 5C3 monoclonal antibody
IL-8 release induced by S100A4 ([1]; S100A4 3 μM, 24 h): can be blocked | IL-8 levels in absence of S100A4 ([1]; absence of S100A4, data not shown): no effect | Reaction Pattern of mAb in ELISA, Human S100A2 [2]: − | reaction with murine S100A4 in Western-blot [3]: also with murine S100A4 | reaction with human S100A4 in Western-blot [4]: react with human S100A4 | adverse side effects (motor incoordination, paralysis, ataxia, convulsions, diarrhoea, cachexia, erythema, hypothermia, mortality) [5, 10]: did not observe adverse side effects | body weight loss [5, 10]: No body weight loss | macroscopic analyses of organs [5, 10]: did not evidence abnormalities in organs | tolerability ([5]; 25 mg/kg, three times a week up to the end of experiment): well-tolerated | tumor weight compared with the control group [6]: statistically significant decrease | Reaction Pattern of mAb in ELISA, Human S100A4 [7]: ++++ | reaction with human S100A4 by ELISA ([7]; purified protein): reacted | Reaction Pattern of mAb in ELISA, Human S100A7 [8]: − | Reaction Pattern of mAb in ELISA, Human S100A6 [9]: −
